# Article PMC12702194
# Target: Fibronectin 1 (FN1) (human (endogenous in C28/I2))
# Assay: proximity ligation; Duolink in situ PLA on decellularized, fixed matrix of C28/I2 WT cells cultured for 72 h; primary antibodies mouse anti-fibronectin or mouse anti-Col II with rabbit anti-ERp57; controls: matrix of ERp57 KO cells and omitted primary antibodies; some cultures incubated with 10 mM DTT for 15 min at 37°C before decellularization (PLA signal significantly decreased)
# Fibronectin 1 (FN1) (human (endogenous in C28/I2)), sequence (P02751 32-2477): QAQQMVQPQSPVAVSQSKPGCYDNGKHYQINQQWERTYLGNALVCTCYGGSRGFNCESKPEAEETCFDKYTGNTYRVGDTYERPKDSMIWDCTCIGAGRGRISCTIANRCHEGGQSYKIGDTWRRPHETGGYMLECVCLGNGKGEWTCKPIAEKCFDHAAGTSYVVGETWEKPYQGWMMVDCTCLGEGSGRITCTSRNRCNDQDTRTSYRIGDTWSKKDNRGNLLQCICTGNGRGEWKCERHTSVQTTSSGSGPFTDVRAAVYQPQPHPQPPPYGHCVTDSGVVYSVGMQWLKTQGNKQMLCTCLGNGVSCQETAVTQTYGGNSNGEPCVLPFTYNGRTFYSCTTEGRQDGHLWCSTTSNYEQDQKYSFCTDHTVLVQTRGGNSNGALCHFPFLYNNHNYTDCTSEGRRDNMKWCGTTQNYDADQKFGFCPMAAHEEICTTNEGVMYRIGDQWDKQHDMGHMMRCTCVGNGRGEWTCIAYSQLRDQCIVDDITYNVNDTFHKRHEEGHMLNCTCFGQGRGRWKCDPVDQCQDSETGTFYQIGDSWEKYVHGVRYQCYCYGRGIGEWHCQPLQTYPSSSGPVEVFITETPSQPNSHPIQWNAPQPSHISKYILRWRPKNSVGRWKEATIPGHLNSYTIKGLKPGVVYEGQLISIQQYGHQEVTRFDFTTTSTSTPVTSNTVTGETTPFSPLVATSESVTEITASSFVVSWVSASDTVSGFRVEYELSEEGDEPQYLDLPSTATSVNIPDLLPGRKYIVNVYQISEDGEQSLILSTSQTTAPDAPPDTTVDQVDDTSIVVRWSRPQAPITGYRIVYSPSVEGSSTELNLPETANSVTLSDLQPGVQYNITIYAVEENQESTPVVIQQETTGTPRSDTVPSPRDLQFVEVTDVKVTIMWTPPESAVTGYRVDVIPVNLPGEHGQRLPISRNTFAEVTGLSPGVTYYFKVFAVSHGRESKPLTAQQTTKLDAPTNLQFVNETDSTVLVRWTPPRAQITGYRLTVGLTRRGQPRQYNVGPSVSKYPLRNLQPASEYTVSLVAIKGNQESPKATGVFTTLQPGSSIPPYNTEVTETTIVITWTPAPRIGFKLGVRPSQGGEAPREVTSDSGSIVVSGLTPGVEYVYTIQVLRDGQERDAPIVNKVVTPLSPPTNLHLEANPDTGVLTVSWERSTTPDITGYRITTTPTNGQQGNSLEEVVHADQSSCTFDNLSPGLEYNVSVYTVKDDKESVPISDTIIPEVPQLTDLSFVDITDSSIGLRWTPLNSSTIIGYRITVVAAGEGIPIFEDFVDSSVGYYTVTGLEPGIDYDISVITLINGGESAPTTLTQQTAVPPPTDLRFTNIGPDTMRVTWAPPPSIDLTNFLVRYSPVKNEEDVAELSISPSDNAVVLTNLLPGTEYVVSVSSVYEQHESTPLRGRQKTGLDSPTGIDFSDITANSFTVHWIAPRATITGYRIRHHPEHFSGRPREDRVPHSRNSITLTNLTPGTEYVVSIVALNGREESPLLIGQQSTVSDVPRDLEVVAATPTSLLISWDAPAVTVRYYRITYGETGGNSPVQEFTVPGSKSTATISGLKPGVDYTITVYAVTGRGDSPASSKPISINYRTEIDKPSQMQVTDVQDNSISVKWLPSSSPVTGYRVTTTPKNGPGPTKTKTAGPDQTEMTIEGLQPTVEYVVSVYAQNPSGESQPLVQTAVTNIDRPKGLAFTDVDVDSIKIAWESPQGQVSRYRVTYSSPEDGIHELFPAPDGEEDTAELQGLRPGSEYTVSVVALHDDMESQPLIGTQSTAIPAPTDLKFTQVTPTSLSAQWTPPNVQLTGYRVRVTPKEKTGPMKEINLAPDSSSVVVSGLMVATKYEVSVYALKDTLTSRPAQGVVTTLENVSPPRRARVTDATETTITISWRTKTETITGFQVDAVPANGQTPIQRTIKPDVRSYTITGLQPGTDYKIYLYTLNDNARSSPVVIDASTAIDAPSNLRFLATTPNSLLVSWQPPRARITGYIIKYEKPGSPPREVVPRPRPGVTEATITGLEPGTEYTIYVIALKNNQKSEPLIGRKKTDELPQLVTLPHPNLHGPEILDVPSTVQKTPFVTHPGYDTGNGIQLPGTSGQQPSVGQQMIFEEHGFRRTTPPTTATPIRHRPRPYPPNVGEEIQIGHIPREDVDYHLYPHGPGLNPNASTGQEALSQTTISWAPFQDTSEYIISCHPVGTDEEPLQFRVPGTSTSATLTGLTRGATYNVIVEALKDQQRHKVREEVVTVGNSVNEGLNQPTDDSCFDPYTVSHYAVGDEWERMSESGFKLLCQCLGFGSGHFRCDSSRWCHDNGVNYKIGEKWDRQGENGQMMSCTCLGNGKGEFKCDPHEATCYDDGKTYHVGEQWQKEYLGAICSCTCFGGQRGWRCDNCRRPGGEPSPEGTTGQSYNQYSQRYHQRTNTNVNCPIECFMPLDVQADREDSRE
substance,measurement,value
endoplasmic reticulum protein 57 (ERp57) (from UniProt P30101 25-505) (enzyme),PLA mean staining intensity,0.284
